Test results taken from patent US10668134B2, “Dental pretreatment material and dental tissue regeneration kit” (National Center for Geriatrics and Gerontology, priority 2016, dated 2020).

Columns and labels:
[1] = system: canine dental pulp stem cells; assay: Induction of dental pulp and dentin by dental pulp stem cells attached to treated fine-grained dentin particles; format: cell-based; details: 7 days culture; for cell adhesion to treated dentin: fine-grained dentin treated for 10 minutes (0.05% trypsin; 1 mM EDTA; 0.05% chymotrypsin; 0.1 mg/mL MMP3), HE stain; for induction of the dental pulp stem cells into the dental pulp and dentin: fine-grained dentin treated for 10 minutes, vs untreated dentin
Experimental: A tooth was extracted from a dog. The cementum and dental pulp of the tooth were removed mechanically. The tooth was then rinsed with tapping water for 3 hours, and then crushed into grains. Fine grains of dentin particles having a diameter of 500 μm to 1,000 μm (fine-grained dentin) were separated by use of a sieve. The fine-grained dentin particles was treated with a mixture liquid containing chloroform and methanol at room temperature for 6 hours, and then, with LiCl (8.0 M) at 4° C. for 24 hours. The fine-grained dentin was then inactivated in distilled water at 55° C. for 24 hours. Thereafter, the fine-grained dentin were divided into six groups: group (i) treated with 0.05% trypsin for 10 minutes; group (ii) treated with 0.05% trypsin and 1 mM EDTA for 10 minutes; a group (iii) treated with 1 mM of EDTA for 10 minutes; group (iv) treated with 0.05% chymotrypsin for 10 minutes; group (v) treated with 0.1 mg/mL MMP3 for 10 minutes; and group (vi) subjected to no treatment. Three fine grains of each of the groups were mixed with 2×10^5 canine dental pulp stem cells. Each mixture underwent centrifugation at 2,000 rpm for 5 minutes, followed by culture in Dulbecco's Modified Eagle's Medium containing 10% FBS at 37° C. for 7 days in the presence of 5% CO2. The culture was then fixed overnight with 4% paraformaldehyde. Paraffin sections were prepared according to a common method, and sliced into 5 μm thick ultrathin sections. The ultrathin sections underwent HE stain.

[2] = system: pulpectomized root canal of middle or advanced aged dog; assay: Dental pulp regeneration following pulpectomy by autologous transplantation of dental pulp stem cells after trypsin pretreatment of the root canal; format: in vivo
Text: Under general anesthesia, anterior teeth of upper and lower jaws of middle or advanced aged dog and young aged dog were pulpectomized. For each tooth, the root canal was enlarged with #50-55 to the apex, and was irrigated alternately with a 5% sodium hypochlorite solution and a 3% hydrogen peroxide solution, followed by washing with physiologic saline. The root canal was completely dried with paper points, and hemorrhage was controlled. The root canal was completely closed with a temporary seal of cement and resin. After 7 to 14 days following the pulpectomy, the temporary seal was removed, and the root canal underwent the alternate washing, and then, washing with physiologic saline. Smear clean (3% EDTA) was then allowed to react for 2 minutes. The root canal was then further washed with physiologic saline, and dried. Thereafter, FRANCETIN⋅T⋅POWDER (2500 USP of crystalized trypsin per 10 mg) (MOCHIDA PHARMACEUTICAL CO., LTD.) at a concentration of 50 μg/ml (0.05%) or 500 μg/ml (0.5%) was allowed to react in the root canal for 10 minutes or 30 minutes. Washing with physiologic saline was then performed. As a control, a tooth on the opposite side was not treated. Further, FRANCETIN⋅T⋅POWDER was mixed with a nanobubble liquid into a 50 μg/ml (0.05%) solution. The solution was allowed to act in a similar manner for 10 minutes, followed by washing with physiologic saline. A root canal filler was prepared by suspending 1×10^6 autologous dental pulp stem cells, which had been membrane-isolated, in 40 μl of a scaffold (Koken Atelocollagen Implant, KOKEN CO., LTD.), and by suspending 3 μl of 100 μg/ml G-CSF (NEUTROGIN, Chugai Pharmaceutical Co., Ltd.). The root canal filler prepared was injected into each root canal such that no air bubbles were contained. The mobilized dental pulp stem cells were isolated using the membrane-isolation-type culture device described above. A hemostatic gelatin sponge (Spongel) was put on the root canal filler. The cavity was completely sealed with cement and resin. On day 14 following the transplantation, the teeth were extracted. According to a common method, 5 μm paraffin sections of longitudinal cross section were prepared. The paraffin sections were then H-E stained to undergo morphological observation. To analyze angiogenesis, the sections were immunostained with BS-1 lectin. Amounts of regenerated dental pulp of four sections were measured for each sample, and an average amount of four samples was determined as the amount of regenerated dental pulp of the sample.

[3] = system: TGW cells (human neuroblastoma cell line); assay: Neurite outgrowth in TGW cells with culture conditioned medium of senescent dental pulp stem cells; format: cell-based; details: positive control, 50 ng/μl; after 48 hours
Experimental: Non-separated 22nd-passage human dental pulp stem cells were brought into a state of 50% confluence. The medium was replaced with a serum-free medium. After 24 hours, the culture conditioned medium was collected. The supernatant was concentrated approximately 40-fold using Amicon Ultra-15 Centrifugal Filter Unit with Ultracel-3 membrane (Millipore, Billerica, Mass.) with 3-kDa molecular cut. Proteinase inhibitors (Halt™ proteinase inhibitor cocktail EDTA-free, Thermo Scientific, Rockford, Ill., USA) was added. The mixture was dispended to be stored at −80° C. Protein content was measured using Bradford Ultra™ (Expedeon, Cambridge, UK).
The culture supernatant (5 μg/ml proteins) prepared in 1 above was added to TGW cells (human neuroblastoma cell line). Further, an ALK5 inhibitor (SB431542, 10 ng/μl) was added to a part of the resultant mixture, and a CCR3 antagonist (SB328437, 5 ng/μl) was added to another part of the resultant mixture. TGW cells to which only the culture supernatant was added was used as a negative control. […] Neurite outgrowth after 48 hours was observed and measured with an inverted microscope (Leica).

[4] = 50 μg/ml (0.05%), no dental pulp stem cells transplanted

`O=C(O)CN(CCN(CC(=O)O)CC(=O)O)CC(=O)O` [EDTA] was tested, and the “cell adhesion to treated dentin” value [1] was “a less number of cells adhered” and the “induction of the dental pulp stem cells into the dental pulp and dentin” value [1] was “induction into the dentin was promoted”.

“MMP3: 0.1 mg/mL MMP3, dentin treatment group (v)” was tested, and the “cell adhesion to treated dentin” value [1] was “inferior in cell adhesiveness”.

For chymotrypsin, the “cell adhesion to treated dentin” value [1] was “inferior in cell adhesiveness”.

B1: trypsin (protein, UniProt P00760 24-246, looked up)
Serine protease 1: IVGGYTCGANTVPYQVSLNSGYHFCGGSLINSQWVVSAAHCYKSGIQVRLGEDNINVVEGNEQFISASKSIVHPSYNSNTLNNDIMLIKLKSAASLNSRVASISLPTSCASAGTQCLISGWGNTKSSGTSYPDVLKCLKAPILSDSSCKSAYPGQITSNMFCAGYLEGGKDSCQGDSGGPVVCSGKLQGIVSWGSGCAQKNKPGVYTKVCNYVSWIKQTIASN
notes: FRANCETIN⋅T⋅POWDER (2500 USP of crystalized trypsin per 10 mg), serine protease dental pretreatment material
For B1, the “increase of the amount of regenerated dental pulp” value ([2]; 50 μg/ml (0.05%) for 10 minutes prior to root canal filler, day 14, vs no pretreatment) was 2.5 times, the “amount of regenerated dental pulp” value ([2]; 50 μg/ml (0.05%) for 30 minutes, compared with same concentration for 10 minutes, day 14) was “doubled” and the dental pulp regeneration [2, 4] was “almost no dental pulp was regenerated”. The “inflammation around the periapical region” value [2, 4] was “no inflammation occurred”, the “amount of regenerated dental pulp” value ([2]; 500 μg/ml (0.5%) for 10 minutes, compared with 50 μg/ml (0.05%), day 14) was “did not cause any significant difference” and the “abnormality at the periapical region” value ([2]; after trypsin pretreatment and transplantation, day 14) was “Abnormality such as inflammation was not observed”. The “inflammatory cells, necrotic layer in dental pulp formed after treatment” value ([2]; day 14) was “did not show any increase of inflammatory cells, formation of necrotic layer”, the “angiogenesis in the regenerated dental pulp (BS-1 lectin)” value ([2]; day 14, each pretreated sample) was “angiogenesis was observed” and the “calcification in the periapical tissue (Masson Trichrome stain, vimentin immunostaining)” value ([2]; dog 5 years of age, 0.05% trypsin 10 minutes, day 14) was “decomposed the calcification in the periapical tissue”. The “cell adhesion to treated dentin” value [1] was “cell adhesion was facilitated” and the “induction of the dental pulp stem cells into the dental pulp and dentin” value [1] was “more promoted”.

B2: GDNF: GDNF (Peproteck), positive control for neurite outgrowth (protein, UniProt P39905 78-211, looked up)
Glial cell line-derived …: SPDKQMAVLPRRERNRQAAAANPENSRGKGRRGQRGKNRGCVLTAIHLNVTDLGLGYETKEELIFRYCSGSCDAAETTYDKILKNLSRNRRLVSDKVGQACCRPIAFDDDLSFLDDNLVYHILRKHSAKRCGCI
For B2, the “Neurite Outgrowth Length” value [3] was 10540.1 ± 4800.7 μm.
